Where a chain is given by its changes, count along the chain named.
B1: 75110_02I16A (antibody, V domains shown)
VH: QVQLQQWGAGLLKPSETLSLTCDVYGGSFSGYYWTWIRQPPGKGLEWIGEINHSGTTNSNPSLKSRVTISVDTSKSQFSLRLSSVTAADTAVYFCTRELNWFDPWGQGTLVTVSS
VL: DIQMTQSPSSVSASVGDRVTITCRASQDIANWLAWYQQKPGKAPQLLIYAASSLLGGVPSRFSGSGSGADFTLTISSLHPEDFATYYCQQANSFPYTFGQGTKLEIK
notes: Tested as antibody purified from AlivaMab Mouse hybridoma supernatant (captured by anti-mouse IgG Fc)
B2: 75110_01L08A (antibody, V domains shown)
VH: QVQLQESGPGLVKPSETLSLTCTVSGGSISHYYWSWIRQPPGKGLEWIGYIHYSGTTNYNPSLKSRVTISVDTSKNQLSLKLRSVTAADTAVYYCARDQGFSSGGMDVWGQGTTVTVSS
VL: not shown
notes: as for B1
B3: 75110_02E22A (antibody, V domains shown)
VH: QVQLQESGPGLVKPSETLSLTCTVSGGSISSFYWSWIRQPAGKGLEWIGRIYTSGSTNYNPSLKSRVTMSVDTSKNQFSLKLSSVTAADTAVYYCARELEKRNYYGMDVWGQGTTVTVSS
VL: DIQMTQSPSSLSASVGDRVTITCQASHDISNYLNWYQQKPGKAPKLLIFDASTLETGVPSRFSGSGSGTYFTFTIRSLQPEDIATYYCQQYDSLPLTFGGGTKVEIK
notes: as for B1
B4: 75110_04H17A (antibody, V domains shown)
VH: QVQLQESGPGLVKPSETLSLTCTVSGGSISTYYWSWIRQSAGKGLEWIGRIYTSERPNYNPSLKSRVTMSVDTSKNQFSLKLNSVSAADTAVYYCARELERPYYYGMDVWGQGTTVTVSS
VL: B3 VL with I2V, D17G, H27Q, F49Y, D50Y, T53N, Y70D, R76S, I83F, S93N
notes: as for B1
B5: 75110_04D20A (antibody, V domains shown)
VH: B3 VH with G26N, S31D, F32Y, V67I, K81E, K101R, R102Y, N103Y, Y104F, M107V
VL: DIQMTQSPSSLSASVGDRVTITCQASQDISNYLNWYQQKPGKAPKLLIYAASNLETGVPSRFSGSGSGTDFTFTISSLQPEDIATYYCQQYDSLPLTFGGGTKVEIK
notes: as for B1
B6: 75110_02K11A (antibody, V domains shown)
VH: QVQLQESGPGLVKPSQTLSLTCTVSGGSISSGFYYWTWIRQHPGKGLEWIGYISYSGNTYYNPSFKSRLTISVDTSKSQFSLKLSSVTAADTAVYYCARDRPSNFDAFDIWGQGTMVTVSS
VL: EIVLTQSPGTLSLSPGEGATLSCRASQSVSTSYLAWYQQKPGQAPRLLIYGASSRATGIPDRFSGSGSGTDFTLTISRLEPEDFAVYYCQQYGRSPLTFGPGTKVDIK
notes: as for B1
B7: 75110_04G16A (antibody, V domains shown)
VH: B6 VH with G27D, F33Y, T37S, N58S, F65L, D74N, S78N, V87L
VL: EIVLTQSPGTLSLSPGERATLSCRASQSVGSTYLAWYQQKPGQAPRLLIYGAFSRATGIPDRFSGSGSGTDFTLTISRLEPEDFAVYYCQQYGSSPLTFGPGTKVDIK
notes: as for B1
B8: 75110_01J09A (antibody, V domains shown)
VH: EVQLVESGGGLVQPGGSLRLSCVASGFTFSSYWMSWVRQAPGKGLEWVANTKEDGSDKYYVDSVKGRFTICRDNAKNSLYLQMNSLRAEDTAVYYCAREGGQWLALDYWGQGTLVTVSS
VL: DIQMTQSPSSVSASVGDRVTINCRASQGISSWLAWYQQKPGKAPNLLIFGASSLQSGVPSRFSGSGFGTDFSLTITTLQPEDFATYHCQQANSFPWTFGQGTKVEIK
notes: as for B1
B9: 75110_03B16A (antibody, V domains shown)
VH: B8 VH with V23A, T51I, K52N, D57E, Y59N, C71S, Y80C, M83L, Y95H
VL: DIQMTQSPSSVSASVGDRVNITCRASQGIRSWLAWYQQKPGKTPKLLICGASSLQSGVPSRFSGSGSGTDFTLTISSLQPEDFATYYCQQANSFPWTFGQGTTVEIK
notes: as for B1
B10: 75110_02E08A (antibody, V domains shown)
VH: QVQLQESGPGLVKPSETLSLTCTVSGGSISTYYWTWIRQPAGKGLEWIGRVYTSGDTNYNPSLKSRVAMSLDTSKNQFSLKLSSVTAADTAVYYCARDSGALYSWNYGDAFDIWGQGTMVTVSS
VL: DIQMTQSPSAMSASVGDRVTITCRASQDISNYLAWFQQKPGKVPKRLIYAASSLQSGVPSRFSGSGSGTEFTLTISSLQPEDFATYYCLQHNSYPRTFGQGTKVEIK
notes: as for B1
B11: 75110_03I08A (antibody, V domains shown)
VH: QVQLQESGPGLVKPSETLSLTCTVSGGSISSYYWSWIRQPPGKGLEWIGYIYYSGSTNYNPSLKSRVTISVDTSKNQFSLKLSSVTAADTAVYYCAREGEQWFYGLDVWGQGTTVTVSS
VL: EIVLTQSPGTLSLSPGERATLSCRASQSVSSTYLAWYQQKPGQAPRLLIYGSSSRATGIPDRFSGSGSGTDFTLTISRLEPEDFAVYYCQQYGNSFPITFGQGTRLEIK
notes: as for B1
B12: 75110_04B08A (antibody, V domains shown)
VH: QVQLVESGGGVVQPGRSLRLSCTASGFNFINYGIHWVRQAPGKGLEWVTIIWYDGSKKYYADSVKGRFAISRDNSKNTLYLQMNSLRAEDTAVYYCAREDDWNDGLAYWGQGTLVTVSS
VL: AIQMTQSPSSLSASVGDRVTITCRASQDIRNDLGWYQQKPGKAPNLLIYAASNLQSGVPSRFSGSGSGTDFTLTISSLQPEDFATYYCLQDSNYPRTFGQGTKVEIK
notes: as for B1
B13: 75110_03C01A (antibody, V domains shown)
VH: QVQLQQWGAGLLKPSETLSLTCAVYGGSFSGYYWSWIRQSPGKGLEWIGEINQSGSTNYNPSLKSRVTISVDTSKDQFSLKLSSVTAADTAVYYCARVINWFDSWGQGSLVTVSS
VL: DIQMTQSPSSVSASVGDRVTITCRASQGISSWLAWYQQKPGNAPKLLIYDASSFQSGVPSRFSGSGSGTDFTLTISSLQTEDFATYYCQQANSFPYTFGQGTKLEIK
notes: as for B1
B14: 75110_05B13A (antibody, V domains shown)
VH: QVLLEQWGAGLLKPSETLSLTCAVYGGSFSGYYWTWIRQPPGKGLEWIGEINHRGSTNYNPSLKSRVTISIDTSKNQFSLKVKSVTAADTAMYYCTRPDSNWFDPWGQGTLVTVSS
VL: B9 VL with N20T, G28D, R30S, S31N, T43A, C49F, G50A, W96L, Q100G, T103K
notes: as for B1
B15: 75110_04P08A (antibody, V domains shown)
VH: B13 VH with F29L, K81R, S83T, A96T, I99L, S104P, Q107R, S109T
VL: B13 VL with I21L, G28D, S31N, N42K, D50A, F54L
notes: as for B1

These binders were tested against T1, Rhesus macaque CD4-HIS (Acro Biosystems, Cat. CD4-C52H7) (rhesus macaque, UniProt P16003 26-390) (assay: BLI Octet, mAb on anti-mouse Fc sensor, rhesus CD4-HIS 25-100 nM, 1:1 global fit;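 further: purified antibodies captured at 10 µg/mL, rhesus CD4 analyte run as a three-concentration serial dilution, irrelevant antibody as reference control, one kinetic constant set per antibody from global fitting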).
T1 construct: Bought reagent; also called Rhesus CD4; rhesus CD4-HIS; not shown: His tag
T1 sequence (P16003 26-390 limits assumed): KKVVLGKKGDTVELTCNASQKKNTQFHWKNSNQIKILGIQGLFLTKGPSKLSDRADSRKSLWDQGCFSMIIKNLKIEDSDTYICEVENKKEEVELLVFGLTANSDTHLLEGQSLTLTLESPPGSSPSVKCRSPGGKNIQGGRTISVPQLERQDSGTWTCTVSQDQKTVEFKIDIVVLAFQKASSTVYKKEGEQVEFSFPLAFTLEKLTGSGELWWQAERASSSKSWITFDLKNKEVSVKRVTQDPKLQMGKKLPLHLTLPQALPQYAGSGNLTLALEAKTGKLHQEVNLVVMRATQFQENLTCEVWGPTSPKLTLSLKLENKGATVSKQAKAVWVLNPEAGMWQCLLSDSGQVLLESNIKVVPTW

Row | Kd [nM] | Response | koff [s⁻¹] | kon [M⁻¹ s⁻¹] | Binder
1 | 37 | 0.14 | 0.0092 | 250000 | B1
2 | 8.1 | 0.06 | 0.0011 | 140000 | B2
3 | 51 | 0.15 | 0.0044 | 87000 | B3
4 | 1.7 | 0.18 | 0.0002 | 120000 | B4
5 | 12 | 0.13 | 0.0017 | 140000 | B5
6 | 26 | 0.13 | 0.0015 | 59000 | B6
7 | 2.4 | 0.27 | 0.00022 | 92000 | B7
8 | 70 | 0.17 | 0.0032 | 46000 | B8
9 | 23 | 0.19 | 0.004 | 170000 | B9
10 | 12 | 0.04 | 0.00091 | 79000 | B10
11 | 6.1 | 0.04 | 0.00061 | 100000 | B11
12 | 18 | 0.26 | 0.0048 | 270000 | B12
13 | 9.8 | 0.18 | 0.0027 | 280000 | B13
14 | 4.7 | 0.14 | 0.002 | 420000 | B14
15 | 60 | 0.12 | 0.0091 | 150000 | B15

From US20220112288A1 (published 2022)
